The source of these data is publication PMC8623585 (Vaccines, 2021).

For orientation: Kd means the equilibrium constant for the complex coming apart.

Test [1] concerns the target T1, Human IL-6 receptor (Homo sapiens, UniProt P08887).
T1 construct: interleukin 6 receptor (IL-6R), human; also called interleukin 6 receptor; source: bought: Sino Biological
Kind of test: ELISA; human IL-6R (2 µg/mL) immobilised on microtiter plates; serial dilutions of pIL6RmAb; detected with HRP-conjugated anti-human-gamma HC antibody; KD by non-linear regression, one-site binding model. To be noted: both partners purified.

Test [2] has as its target T1, Human IL-6 receptor. Kind of test: cell-based or functional assay.

T1 sequence (P08887 20-365): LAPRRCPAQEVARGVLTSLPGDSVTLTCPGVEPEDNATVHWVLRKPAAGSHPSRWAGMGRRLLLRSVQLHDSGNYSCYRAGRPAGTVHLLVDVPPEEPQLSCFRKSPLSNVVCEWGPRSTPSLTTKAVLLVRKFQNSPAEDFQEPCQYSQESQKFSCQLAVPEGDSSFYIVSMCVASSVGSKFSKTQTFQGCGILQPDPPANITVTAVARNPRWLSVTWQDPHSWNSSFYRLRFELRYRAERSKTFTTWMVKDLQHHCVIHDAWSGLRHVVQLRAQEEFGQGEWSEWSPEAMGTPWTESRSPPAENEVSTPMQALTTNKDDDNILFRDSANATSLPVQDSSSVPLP

B1: Plant-produced IL6RmAb (anti-IL-6 receptor monoclonal antibody with the amino acid sequence of sarilumab) (antibody, V domains shown)
VH: EVQLVESGGGLVQPGRSLRLSCAASRFTFDDYAMHWVRQAPGKGLEWVSGISWNSGRIGYADSVKGRFTISRDNAENSLFLQMNGLRAEDTALYYCAKGRDSFDIWGQGTMVTVSS
VL: DIQMTQSPSSVSASVGDRVTITCRASQGISSWLAWYQQKPGKAPKLLIYGASSLESGVPSRFSGSGSGTDFTLTISSLQPEDFASYYCQQANSFPYTFGQGTKLEIK
notes: heavy chain of sarilumab; light chain of sarilumab; Full IgG1 with kappa light chain, heterotetramer of ~150 kDa; made in a glycoengineered N. benthamiana line; also called pIL6RmAb; anti-IL6R mAb; copies: 2 + 2
In the case of B1, binding in test [1] was characterised by a dissociation constant (Kd) of 0.083 nM. Moreover, in test [2], the “IC50 of inhibition of IL-6 signaling in luciferase reporter cells (Promega IL-6 Bioassay) with 25 ng/mL (~1.19 nM) recombinant human IL-6; blocks IL-6 with IL-6R” value came out at 0.081 µg/mL and the “IC50 of inhibition of IL-6 signaling in luciferase reporter cells (Promega IL-6 Bioassay) with 25 ng/mL (~1.19 nM) recombinant human IL-6; blocks IL-6 with IL-6R (the same IC50 in molar units)” value is approximately 0.54 nM.
